Measurements published in patent publication US9777041B2, “Protein nanofibers from self-assembling pentamers” (New York University, priority 2013, dated 2017).

How the values were obtained:
[1] = Transmission electron microscopy of protein fibers; type: physicochemical; conditions: pH 4, 50 mM PB
Experimental: Transmission electron microscopy: A JEOL JEM-1400 transmission electron microscope (TEM) was used to study the supramolecular protein structure. […] After 1 minute, the grids were blotted using filter paper and rinsed with 3-4 drops Milli Q water to remove excess salts from the buffer. After blotting with filter paper, the sample was negatively stained by adding 3 μL of 1% filtered uranyl acetate, blotted using filter paper, and dried at room temperature for 10-15 minutes. ImageJ software was used to measure the fibers dimensions.

Zeta potential = type: physicochemical; conditions: 10 μM protein, pH 4
Experimental: Zeta potential: Zeta potential measurements were performed on a Zetasizer Nano Series model Nano Z590. 50 mM phosphate buffer at pH 4 was used to saturate the clear polycarbonate disposable zeta cell DTS1060C prior to injecting 750 μL protein samples at protein concentrations of 10 μM. The following settings were used for zeta potential measurements in the DTS (Nano) software: […] instrument settings, Smoluvchoski model, material protein, dispersant PBS, temperature of 25° C., viscosity 1.0200 cP, and dielectric constant of […]. Measurements were taken in triplicates, conducting 10 runs for each measurement, with a delay time of 2 seconds between each measurement.

[2] = Circular dichroism wavelength scans (secondary structure); type: physicochemical; conditions: for −θ222 × 10^3 / −θmin × 10^3: 10 μM protein; for random coil / α helices / β sheet: CD, K2D method
Experimental: Circular dichroism: Circular dichroism (CD) measurements were conducted on a Jasco J-815 CD spectrometer. Wavelength and temperature scans were conducted with 10 μM (6.3×10^−2 mg/mL) protein concentrations. The wavelength spectrum was measured over a range from 190 to 250 nm with a step size of 1 nm Mean residue ellipticity (MRE) was calculated from raw data according to the procedure described in Gunasekar et al. 2009. Secondary structure analysis of α-helical, β-sheet, and random coil content was calculated with the K2D method using DichroWeb software. Temperature scans of each protein were performed over a range of 20-85° C. with a temperature step of 1° C./min at 222 nm. Scans were also performed at of 2° C./min and 5° C./min to evaluate dependence of thermal melt signatures on scan speed. All measurements were made in duplicates of independently prepared proteins and data represents the average. Thermodynamic properties of wt and Q were determined through analysis of thermal melts. A two-state model was used, where assumptions included monophasic behavior and reversible melting behavior. These assumptions were confirmed experimentally by melting (from 20 to 85° C.) and cooling (from 85 to 20° C.) the proteins. Calculation of thermodynamic parameters including Tm, ΔG°, ΔH°, and ΔS° were performed according to the method described by Greenfield.
To assess the secondary structure of the proteins under acidic as well as neutral and basic conditions in solution, CD measurements were performed. […] The presence of residue P28 towards the center of Q may have influenced the secondary structure, showing decreased helical content when compared to wt at pH 4 and 10 (FIG. 16). The negative control, L, was completely unstructured, devoid of helical content at pH 4 (FIG. 11). […] As the pH increased, the helical content of soluble Q protein increased.
Mean residual ellipticities from circular dichroism measurements at pH 4, 8, and 10 for wt, L, and Q. The data presented in Table 5 represents the average and standard deviation of at least two replicates.

[3] = ATR-FTIR secondary structure of solid-state protein; type: physicochemical; conditions: for Random, percent composition / α helix, percent composition / β sheet, percent composition: 10 μM protein in 50 mM PB
Experimental: Attenuated Total Reflectance Fourier Transform Infrared Spectroscopy (ATR-FTIR): ATR-FTIR experiments were performed using Perkin Elmer System 2000 FT-IR with DuraSamplIR II T diamond ATR accessory and equipped with a MCT-A detector. Approximately, 5 μL of peptide solution (10 μM in 50 mM PB, pH 4, 8, and 10) was added on the diamond ATR surface. The spectrum (128 scans) was measured at room temperature over a range of 4000-400 cm^−1 with 0.5 cm^−1 resolution. PeakFit software was used to process the data, which involved a 2nd derivative zero baseline correction of the amide I region between 1700-1600 cm^−1 and deconvolution of peaks with a Gaussian function. All readings represent the average of two trials.
To quantifying the secondary structure of the protein in its solid-state, ATR-FTIR experiments were conducted to evaluate secondary structure of insoluble Q fibers at pH 4, 8, and 10 (Table 8). The frequency measured in the regions of the amide I and amide II absorptions of a protein correlate to the secondary structural motifs within the protein, and were thereby used to assess conformation of the protein in its solid-state (FIGS. 20a-20d). Secondary structure conformation based on ATR-FTIR data for Q in 50 mM PB at pH 4, 8, and 10, and in the presence of curcumin at a 5:1 molar ratio with Q at pH 4 are shown in […]. Percent composition was determined from relative areas of peaks fit to spectra (FIGS. 20a-20d).
Secondary structure conformation based on ATR-FTIR data for 10 μM protein in 50 mM PB before and after templation of AuNPs is provided in Table 10. Percent composition was determined from relative areas of peaks fit to spectra (see spectra FIGS. 37a-37d, FIGS. 38a-38d).

[4] = Curcumin binding fluorescence; conditions: in the presence of Zn^2+
Description: FIG. 40. Fluorescence of C and Q or with incorporated trifluoroleucine/TFL (C TFL and Q TFL) in the presence of no metal, Ni (II), or Zn (II) and curcumin. An increase in fluorescence indicates structural stability of the protein as it is able to bind with curcumin, the fluorescent probe in this case.

[5] = curcumin at 5:1 molar ratio, pH 4

Q: Q54 protein, SEQ ID NO:2, variant of COMPcc; coiled-coil that self-assembles into homopentamers and nanofibers (MRGSHHHHHHGSIEGRVKEITFLKNTAPQMLRELQETNAALQDVRELLRQQSKL)
fiber formation seen by TEM [1]: regularly forms fibers with high levels of structure
protofibril diameters [1]: 3.5±0.5 nm
fiber diameters ([1]; listed as Q54): 50-100 nm
protofibril diameters ([1]; listed as Q54): 3-4 nm
zeta potential (Zeta potential; absence of curcumin): 19.1±2.5 mV
zeta potential, maximum value (Zeta potential; curcumin concentration of 40 μM): 25.2±0.8 mV
double minimum, ellipticity at 206 nm ([2]; 206 nm, pH 4 (Table 5)): −6.54×10^3 deg cm^2 dmol^−1
double minimum, ellipticity at 222 nm ([2]; 222 nm, pH 4 (Table 5)): −3.71×10^3 deg cm^2 dmol^−1
−θ222 × 10^3 ([2]; pH 4): 3.71 10^3 deg cm^2 dmol^-1
−θmin × 10^3 ([2]; pH 4): 6.54 10^3 deg cm^2 dmol^-1
random coil ([2]; pH 4): 55%
α helices ([2]; pH 4): 9%
β sheet ([2]; pH 4): 36%
−θ222 × 10^3 ([2]; pH 8): 6.63 10^3 deg cm^2 dmol^-1
−θmin × 10^3 ([2]; pH 8): 7.79 10^3 deg cm^2 dmol^-1
random coil ([2]; pH 8): 57%
α helices ([2]; pH 8): 22%
β sheet ([2]; pH 8): 21%
−θ222 × 10^3 ([2]; pH 10): 6.76 10^3 deg cm^2 dmol^-1
−θmin × 10^3 ([2]; pH 10): 8.07 10^3 deg cm^2 dmol^-1
random coil ([2]; pH 10): 57%
α helices ([2]; pH 10): 25%
β sheet ([2]; pH 10): 18%
Random, percent composition ([3]; +AuNP (after templation)): 27%
α helix, percent composition ([3]; +AuNP (after templation)): 30%
β sheet, percent composition ([3]; +AuNP (after templation)): 43%
Random, percent composition ([3]; before templation of AuNPs): 0%
α helix, percent composition ([3]; before templation of AuNPs): 65%
β sheet, percent composition ([3]; before templation of AuNPs): 35%
α helix % composition [3, 5]: 79%
β sheet % composition [3, 5]: 10%
Random coil % composition ([3]; curcumin at 5:1 molar ratio, pH 4, 1640-1648 cm^−1): 12%
β sheet % composition ([3]; pH 4, 50 mM PB, 1625-1640, 1675-1695 cm^−1): 38%
α helix % composition ([3]; pH 4, 50 mM PB, 1648-1660 cm^−1): 62%
α helix % composition ([3]; pH 8, 50 mM PB): 63%
β sheet % composition ([3]; pH 8, 50 mM PB): 37%
α helix % composition ([3]; pH 10, 50 mM PB): 68%
β sheet % composition ([3]; pH 10, 50 mM PB): 32%
binding to small molecule (curcumin fluorescence) [4]: substantially increase the binding to small molecule
